Assay: yeast display, Sf9 membrane polyspecificity reagent, FACS + sequencing; frameworks hold sequencing errors
How it was run: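 Genes from sorted yeast were amplified by colony PCR, read by MiSeq 2 × 250 sequencing and filtered on CDR length. These cells carried a synthetic nanobody library in Saccharomyces cerevisiae BJ5465 and were sorted by FACS into low and high (top ~1%) gates on anti-HA and streptavidin fluorescence. Polyreactivity is labelled according to the gate of origin.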

Row | Sequence | polyreactivity (PSR sort gate)
1 | QVQLVESGGGLVQAGGSLRLSCAASGRIFTRYAMGWYRQAPGTERELVAVITRSGGSTYYADSVKGRFTISRDNAKNTVYLQMNSLKPEDTAVYYCAAKYYGEMYYWGQGTQVTVSS | low polyreactivity
2 | QVQLVESGGGLVQAGGSLRLSCAASGRTFKTYAMGWYRQAPGKERELVAAISRDGRTYYADSVKGRFTISRDNAMNTVYLQMNSLKPEDTAVYYCNKRSYRKGDYWGQGTQVTVSS | low polyreactivity
3 | QVQLVESGGGLVQAGGSLRLSCAASGRIFGYNDMGWYRQAPGKERELVAAINRTGGSTYYADSVKGRFTISRDNGKNTVYLQMNSLKPEDTAVYYCNAVARTKWVQTHTDFITDYDYWGQGTQVTVSS | low polyreactivity
4 | QVQLVESAGGLVQAGGRLSLICAASGYTFYYHAMGWYRQAPGKERELVASIRSRGRSTYYADSVKGRFTISRDNAKNTVYLQMNSLKPEDTAVYYCAALPNKPAVYAYDYWGQGTQVTVSS | low polyreactivity
5 | QVQLVESGGGLVQAGGSLRLICAASGRTFPYNTMGWYRQAPGKERELVAGISIRGSSTYYADSVKGRFTISRDNAKNTVYLQMNSLKPEDTAVYYCAKRYYGWYGNFDYWGQGTQVTVSS | high polyreactivity
6 | QVQLVESGGGLVQAGGSLRLSCAASGSIFRYNTMGRYRQAPGKERELVATITRRGGSTYYADSVKGRFTISRDNAKNTVYLQMNSLKPEDTAVYYCNADNFGGPYNYWGQGTQVTVSS | low polyreactivity
7 | QVQLVESGGGLVQAGGSLRLSCAASGSTFRTNGMGWYRQAPGKERELVAAITRGTSTNYADSVKGRFTISRDNAKNTVYLQMNSLKPEDTAVYYCAADVTGGRKYDYWGQGTQVTVSS | low polyreactivity
8 | QVQLVESGGGLVQAGGSLRLSCAASGRTLSGNAMGWYRQAPGKERELVASISTSTDGTYYADSVKGRFTISRDNAKNTVYLQMNSLKPEDTAVYYCTTTTYHWYYYRWEIFDYWGQGTQVTVSS | low polyreactivity
9 | QVQLVESGGGLVQAGGSLRLSCAASGSTFARYAMGWYRQAPGKERELVAAISKGGDRTYYADSVKGRFTISRDNAKNTVYLQMNSLKPEDTAVYYCAARYTPRRYYYWGQGTQVTVSS | high polyreactivity
10 | KVQLVESGGGLVQAGGSLRLSCAASGITSSYSAMVWYRQAPGKERELVAAITSSGGSTYYADSVKGRFTISRDNAKNTVYLQMNSLKPEVTAVYYCAARIGQYKAHTRINQYYIRYYWGQGTQVSVSS | low polyreactivity
11 | QVQLVESGGGLVQAGGSLRLSCAASGRIFFYNVMGWYRQAPGKERELVASIRWSGSGTYYADSVKGRFTISRDDAKNTVYLQMNCLKPEETAVYYCAVLGRVGYGVYPVDYWGQGTQVTVSS | high polyreactivity
12 | QVQLVESGGGLVQAGGSLRLSCAASGRTFSQYAMGWYRPAPGKERELVAAITRSGSRTYYADSVKGRFTISRDNAKNTVYLQMNSLKPEDTAVYYCAADGHAGYPIDEYYYWGQGTQVTVSS | high polyreactivity
13 | QVQLVESGGGLVQAGGSLRLRCAASGSTFYRYALGWYRQAPGKERELVAVITSGGGTYSADSVKGRFSISRDNAKNTVYLQLNSRKPEDTAVYDCAARYLRTRNYQYDYWGQGTQVTVSS | high polyreactivity
14 | QVQLVESGGGLVQAGGSLRLSCAASGLILRRYAMGWYRQAPGKDRELVAAISWSGGRTYYADSVKGRFTISRDNAKNTVYLQMISLKPEDTAVYYCAAGYIYWYYSYDYWGQGTQGTVSS | high polyreactivity
15 | QVQLVESGGGLVQAGGSLRLTCAASGSIIVTYAMGWYRQAPGKERELVAVINSGTSTNYADSVKGRFTISRDNAKNTVYLQMNSLKPEDTAVYYCNADPLVYYYQDYRFCMGYWGQGTQVTVSS | low polyreactivity
16 | QVQLVDSGGGLVQAGGSLRLSCAASGSILNNYAMGWYRQARGKERELVAAISSSGGTNYADSVKGRFTISRDNAKNTVYLQMNSLKPEDTAVYYCYADVLDGGYDYWGQGTQVTESS | low polyreactivity
17 | QVQLVESGGGLVQAGGSLRLSCAASGITFLDYTMGWYRQAPGKERELVATISKSGGSTYYADSVKGRFTISRDNAKNTVYLQMNSLKPEDTAVYYCAARGFTFWRYYYWGQGTQVTVSS | high polyreactivity
18 | QVQLVESGGGLVQAGGSLRLSCAASGFIFLYNAMGWYRPAPGKERQLVAAITSSGATTYYADSVKGRFTISRDNAKNTDYLQMNSLKPEDTAVYYCAARYTGRNGGSTTPEYDYWGQGTQVTVSS | low polyreactivity
19 | QVQLVESGGGLVQAGGSLRLRCAASGYTLGPYAMGWYRQAPGKERELVAAISWGGGRTYYADSVKGRFTISRDNAKNTVYLQMNSLKPEDTAVYYCAAKWSHVRDGPKYDYWGQGTQVTVSS | low polyreactivity
20 | QVQLVESGGGLVQAGVSLRLSCAASGRTFVWYVKGWYRQAPGKERELVAAINRSGGRTYYADSVKGRFTISRDNAKNTVYLQMNSLKPEDTAVYYCAAARYVRYYSGYWGQGTQVTVSS | high polyreactivity
21 | QVQLVESGGRLVQAGGSLRLSCAASGITFYDYAMGWYRQAPGKERELVAAITWNGGDTYYADSVKGRFTISRDNAKNTVYLQMHSLKPEDTAVYYCNATRHYFGGFHYEYYYWGQGTQVTVSS | low polyreactivity
22 | QVQLVESGGGLVQAGGSLRLSCAASGSIFGYNAMGWYRQAPGKERELVAAISLTTGSTYYADSVKGRFTISRDNAKNTVYLQMNSLKPEDTAVYYCAAVDADYYYWGQGTQVTVSS | high polyreactivity

Row | Sequence | polyreactivity (PSR sort gate)
23 | QVQLVESGGGLVQAGGSLRLSCAASGSIFYPYAMGWYRQAPGKERELVAAISSGGRTYYADSVKGRFTISRDNAKNTVYLQMNSLKPEDTAVFYCAARPKAYGRPPGYYWGQGTQVTVSS | high polyreactivity
24 | QVQLVESGGGLVQAGGSLRLSCPASGFTIRRNAMGCYRQAPGKERELVAAITRGGGSTYYADSVKGRFTISRDNAKNTVYLQMNSLKPEDTAVYYCSADGYYQYESWGQGTQVTVSS | high polyreactivity
25 | QVQLVESGGGLVQAGGSLRLSSAASGRIFDGNAMGGYRQAPGTERELVATINRGARTNYADSVKGRFTISRDNAKNTVYLQMNSLKPEDTAVYYCATSYPGYAYNQAWYPYGYWGQGTQVTVSS | low polyreactivity
26 | QVQLVESGGGLVQAGGSLRLSCAASGSTFSKNAMGWYRQAPGKERELVAAINWSTGSTHYADSVKGRFTISRDNAKNTVYLQMNRLKPEDTAVYYCAAEGPKQYDYWGQGTQVTVSS | low polyreactivity
27 | QVQLVESVGGLDQAGGSLRFICASSAHTISSYAMGWYRQAPGKERELVAAISVSATRTYYADSVKGRFTISRDNAKNTVYLQMSSLNPEDPAVYYFAARPVQFTYGYWGQGTQVTVSS | high polyreactivity
28 | QVQLVASGGGLVQAGGSLRLTCAASGITSWYYAMGWYRQAPGKERELVAAITSDGSTYYADSVKGRFTISRDNAKNTVYLQMNSLNPEDTAVYYCAAERDYWIPDSYLVVMDYWGQGTQVTVSS | low polyreactivity
29 | QVQLVESGGGLVQAGGSLRISCAASGSTFDNYAMGSYRHAPGKERELVAVITQSGGITFYADSVKGRFTISRDNSKNTVYLQMNSLKPEDSAVYYCNVELDRSWYYYWGQGTQVTVSS | low polyreactivity
30 | QVHLVESGGGLVQAGGSLRLSCAASGFIFKKYAMGWYRQAPGKERELVAAIDSSGSTTYADSVKGRFTISRDNAKNTVYLQMNSLKPEDTAVYYCAAPFTVYRHAPDMDYWGQGTQVTVSS | low polyreactivity
31 | QVQLVESGGGLVQAGGSLRLSCAASGSTFYSYAMGWYRQAPGKERELVAAIDWSGTSTYYADSVKGRFTISRDNAKNTVYLQMNSLKPEDTAVYYCAARYTRGGSGPDYNYWGQGTQVTVSS | high polyreactivity
32 | QVQLVESGGGLVQAGGSLRLSCAASGRTFLWYTMGWYRQAPGKERELVAAISGSGGSTYYADSVKGRFTISRDNAKNTVYLQMNSLKPEDTAVYYCNAVRGYRYDYWGQGTQVTVSS | high polyreactivity
33 | QVQLVESGGGLVQAGGSLRLSCAASGFIFRKYAMGWYRQAPGKERELVAAITSSGGSTYYADSVKGRFTISRDNAKNTVYLQMNSLKPEDTAVYYCAARLKQSGHDYWGQGTQVTVSS | high polyreactivity
34 | QVQHVESGGGLVQAGGSLRLRCAASARTFLANAMGWYRQAPGKERELLAAITYSGGRTYYADSVKGRFTISRDNAKNTVYLQMNSLKPEDTAVYYCAAEGKVTSQYTMDYWGLGTQVTVSS | high polyreactivity
35 | QVQIVDSGGGLVHAGGSLRLSCADSGSIFSGNAKAWYIQATGKERELVAAISRSGGSTYYADSVKGRFTISRDNAKNTVYLQMNSLKPEDTAVYYCNAGRYRAGGWGVGEGYWGQGTQVTVSS | high polyreactivity
36 | QVQLVESGGGLVQAAGSLRLSCAASGFIFHYNAMGWYRKATGKERELDASITASASRTYYADSVKGRFTISLDNAKNTVYLQMNSLKPEDTAVYYCAKAIRITITRYRFGYWVQGTQVTVSS | high polyreactivity
37 | QVQLVESGGGLVQAGGSLRLSCAASGSIFDYNSMGMYIQAPGKERELVAAISSGGTTYYADSVKGRFTISLDNAKNTVYLHIKSLKPEDTDVYYCAARRAGWWGFYYWGQCTQVTVSS | high polyreactivity
38 | QVQLVESGGGLVQAGGRLRLSCAASGSIFFAYAMGWYRQAPGKERELVAAITSGVSTNYADSVKGRFTISRDNAKNTVYLQMNSLKPEDTAVYYCNADFDYGFDAGVAVQVVIHDYWGQGTQVTVSS | low polyreactivity
39 | QVQLVESGGGLVQAGGSLRLSCAASGRIFVYNAMGWYLQAPGKERELVANIDYSGGSTYYADSVKGRFTISRDNAKNTVYLQMNSLKPEDTAVYYCAADGGSTAFDYWGHGTQVTVSS | low polyreactivity
40 | QVQLVESGGGLVQAGGSLRLSCAASGSILDTNAMGWYRQAPGKERELVARIDIDGSTNYADSVKGRFTISRDNAKNTVYLQMNSLKPEDTAVYYCAADAERHAPKFTYGTYDYWGQGTQVTVSS | low polyreactivity
41 | QVQLVESGGGLVQAGGSLRLSCAASGFIFTRYAMGWYRQAPGKERELVAAISASGGSTYYADSVKGRFTISRDNAKNTVYLQMKSLKPEETAVYYCAAVPYRYTYDYWGQGTQLTVSS | high polyreactivity
42 | QVQLEESGGGLVQAGGSLRLSCADSGSTFYTNAMGWYRQAPGKERELVAAISASVGSTYYADSVKGRFTISRDNAKNTVYLQMNILKPEDTAVYYCAAYVWDSRRYDYWGQGTQVTVSS | low polyreactivity
43 | QVQLVESGGGLVQAGGSLRLSCAASGRIFHYNAMGWYRQAPGKERELVAAITRRGTSTYYADSVKGRFTISRDNAKNTVYLQMNSLKPEDTAVYYCATDYGFKDSVVDFDYWGQGTQVTVSS | low polyreactivity
